pKd: −log10 of the molar value.
System: LARP1 C-terminal fragment (extended DM15) WT (Homo sapiens)
Experiment: EMSA
Details: m7Gppp cap; EMSA: 20 mM Tris-HCl pH 8, 150 mM NaCl, 10% glycerol, 1 mM DTT, 0.5 ug tRNA, 1 ug BSA in 10 ul; on ice 30 min; 7-8% native 0.5x TBE gel at 4 C; RNA <=200 pM

## m7G-RPS6-UTR (capped RPS6 20-mer)
  pKd: 6.82

Source: PMC8034618
